# From patent US11426447B2, “Neuregulin for the treatment of tumors of the nervous system” (LEIBNIZ-INSTITUT FUR …, priority 2016, dated 2022)
# B1: rhNRG1: EGF domain containing 7 kDa protein of recombinant human Neuregulin 1, purchased from Reprokine (#RKQ02297) (protein, listed as Homo sapiens)
# chain: SHLVKCAEKEKTFCVNGGECFMVKDLSNPSRYLCKCPNEFTGDRCQNYVMASFYKHLGIEF
# How the values were obtained:
# [1] = in vivo; cited from earlier work
# intact nerves = experiment: Morphometric analysis of nerve sections: myelin thickness of non-crushed, intact nerves; format: in vivo, wildtype mice; details: long-term treatment over 8 weeks, vs PBS control
# Method: Analysis of axon calibre, myelination thickness and solidity factor was conducted on semi-thin and ultra-thin sections of the sciatic nerve removed from transcardially perfused mice. Mice were perfused with a solution containing 3% paraformaldehyde and 3% glutaraldehyde in 0.1 M phosphate buffer (pH 7.4). Sections were postfixed for 1 h and kept in fixative including 3% sucrose. Sections were obtained from the distal part of the sciatic nerve. Sectioning and staining were performed as described. Images of toluidine blue-stained semi-thin sections were taken using an Axioskop 2 MOT (Carl Zeiss, Germany) equipped with a 100× immersion oil objective and an Olympus XC50 digital camera (Olympus, Germany). Standardized settings for camera sensitivity, resolution (2,576×1,932 pixels) and brightness of illumination were used for all micrographs. Ultra-thin sections were analysed with an electron microscope (EM910, Carl Zeiss) equipped with an integrated TRS 1K digital camera (Carl Zeiss). Image analysis was conducted with ImageJ version 1.48u. RGB colour images obtained from semi-thin sections were split into single channels and the green channel was chosen for measurements. The image was contrasted using the auto function. Axon and myelin were circumscribed manually by the freehand selection tool. Based on the measured areas, the thicknesses of the axons and myelin sheaths were calculated. […]
# [2] = Serum levels of rhNRG1 after intraperitoneal injection (Nrg1 ELISA kit); format: in vivo, mice; details: single intraperitoneal injection, 10 μg per kg body weight, pooled blood
# Method: To measure peripheral exposure of rhNRG1 in mice, up to 50 μl blood was sampled from mice for four consecutive days via bilateral retro-orbital plexus and facial veins. For serum preparation, collected blood was allowed to clot at room temperature for 1 hour before spinning for 20 minutes at 2,000 g.
# Blood serum levels of rhNRG1 before and after intraperitoneal injection were measured using a commercially available kit according to manufacturer's instructions (#ab100614; Abcam; USA).
# Crush injury-induced schwannoma formation was provoked in 2-month-old mice. Subsequently, administration of rhNRG1 was performed both systemically (by intraperitoneal injection) and locally (by rhNRG1-containing absorbable collagen sponges (ACS)). Vehicle saline solution was given to control animals. In order to assess the bioavailability of intraperitoneally injected rhNRG1 (10 μg per kg body weight), rhNRG1 serum levels were evaluated. Strikingly, rhNRG1 levels reached a peak 2 days after injection (FIG. 1B). […] A significant decline in body weight at the chosen dosage was, however, not observed (FIG. 1C).
# Schwann cells = experiment: Neuropathological assessment (HE, immunolabelling) of sciatic nerve cross sections 3 months after crush injury; format: in vivo, P0-Cre;Nefh-Cre;Nf2fl/+ mice; details: KO mice
# Source text: For histological workup, paraformaldehyd fixed nerve samples were embedded in paraffin, cut at the site of the largest diameter and mounted as a tissue micro array. 4 μm thick cross sections were used for H&E staining and immunohistochemical labelling of S100 (1:8000; Dako), P0 (1:300; Bioss Antibodies), phospho-c-Jun (Ser73; 1:500; Cell Signalling; 8752), ErbB2 (1:500; Cell Signaling) and Arginase-1 (1:200; Santa Cruz; H-52) in an automated Ventana stainer (Ventana Medical Systems, USA) using standard antigen retrieval protocols (CC1st, no pretreatment for S100-protein). Onion-bulbs and schwannoma-like structures were assessed in H&E stained slides.
# Immunohistochemistry was performed as described in (Schulz et al., 2010). Briefly, paraffin-embedded, longitudinal sections of sciatic nerves were rehydrated, boiled in 10 mM sodium citrate buffer (pH9) for 30 min in a microwave and subsequently treated with 0,5% Triton X-100 for 10 min. Sections incubated in 0.2% gelatine and 2% goat serum diluted in PBS at least 2 h. Sections submersed in the primary antibody solution overnight at 4° C. The following primary antibodies were used: Myelin protein zero (P0; 1:200; Abcam; ab39375), neurofilament (1:200; BioLegend; SMI312), myelin basic protein (MBP; 1:500; Millipore; MAB384)), Ki-67 (1:200; eBioscience; Clone: SolA15), lba-1 (1:200; Wako), and p75 (1:200; Merck Millipore; AB 1554). After vigorous washings, sections incubated with secondary antibody solution (Alexa488-, Alexa546- or Alexa647-conjugated anti-mouse, -rat, -chicken and -rabbit antibodies, 1:500 in PBS, Invitrogen) at room temperature for 2 h. Finally specimens washed in PBS, counterstained using DAPI (1 μg/ml PBS, 10 min) dehydrated and embedded. DAPI-stained cell nuclei or lba-1-positive cells were counted using ImageJ plugin ‘Particle Analysis’ from images acquired with 10× magnification after standardized background reduction and threshold setting.
# (§1) Sciatic nerve crush injury was performed on WT and Nf2flox;P0-Cre;Nefh-Cre mutant animals as described in Example 1. The Nf2flox;P0-Cre;Nefh-Cre mutant animals were intraperitoneally injected every day with 10 μg of rhNRG1 per kg body weight (KO rhNRG1). For a control a PBS solution was systemically administered to WT animals and Nf2flox;P0-Cre;Nefh-Cre mutant animals (WT vehicle and KO vehicle). Sciatic nerve lysates were taken from animals after 3 month of treatment upon which immunochemistry was performed as described in Example 1.
# [3] = system: Schwann cell differentiation markers in crushed sciatic nerves; experiment: Immunoblot of sciatic nerve lysates after 3 months of treatment; format: in vivo, Nf2flox;P0-Cre;Nefh-Cre mice
# Method: Immunoblotting was performed as described in (Morrison et al., 2001). The following primary antibodies were used: phospho-c-Jun (Ser73; 1:1000; Cell Signalling; 8752), anti-Nrg1 (1:250; Santa Cruz; clone C-20), anti-Erk (1:500; Cell Signalling), anti-phospho-Erk (T202/Y204; 1:500; Cell Signalling), anti-ErbB2 (1:500; Cell Signalling), anti-GAPDH (1:1000; Santa Cruz; 6C5), anti-merlin (1:500; Santa Cruz; A19). Western blot results were quantified using Gel analysis software by ImageJ. Density values were normalized to actin and appropriate controls of transfection or wild-type tissue, respectively. In case of phospho-specific detection of proteins, their acquired densities were referred to signals derived from related pan-antibodies (e.g. phospho-Erk to Erk signals).
# as §1
# [4] = systemic rhNRG1, 3 months after crush injury
# [5] = systemic rhNRG1 vs saline-treated same genotype
molecule,measurement,setting,value
B1,body weight,[1],decrease in body weight
same,"impact on the microarchitecture of intact nerves (myelin thickness, g-ratio)",intact nerves,no obvious impact
same,time of peak rhNRG1 serum level after injection,[2],2 days
same,number of immature Schwann cells (p75 staining),Schwann cells; rhNRG1 injections,relevantly decreased
same,immunoreactivity of schwannoma marker CPI-17,Schwann cells; rhNRG1 vs KO control injections,relevantly lower
same,S100 and MPZ immunoreactivity,Schwann cells; [4],restricted to Schwann cells with myelinating phenotype
same,nerve regeneration (histology),Schwann cells; [4],almost regular regeneration
same,expression of Neuregulin1 (immunolabelling),Schwann cells; [5],greatly reduced
same,expression of receptor tyrosine kinase ErbB2 (immunolabelling),Schwann cells; [5],greatly reduced
same,21.5-kDa MBP isoform expression (immunoblot),[3]; KO rhNRG1,strong up-regulation
same,myelin protein zero (MPZ) expression (immunoblot),"[3]; KO rhNRG1, 3 months of treatment, vs wildtype",reduced expression
same,17 kDa myelin basic protein (MBP) isoform expression (immunoblot),[3]; KO rhNRG1 vs wildtype littermates,remarkable reduced expression
same,c-Jun levels (marker for undifferentiated Schwann cells),"[3]; knockout animals, systemic rhNRG1 injections",reduced
same,ErbB2 expression (immunoblot),"[3]; rhNRG1-treated knockout mice, high in vehicle-treated knockout",normal expression
same,macrophage number in nerve tissue (Iba-1 immunoblot),[3]; systemic rhNRG1 treatment,not influenced
